Target: T1, endogenous p75^NTR in 3T3L1 adipocytes (mouse, UniProt Q9Z0W1 32-427)
T1 construct: whole, on cells
T1 sequence (looked up): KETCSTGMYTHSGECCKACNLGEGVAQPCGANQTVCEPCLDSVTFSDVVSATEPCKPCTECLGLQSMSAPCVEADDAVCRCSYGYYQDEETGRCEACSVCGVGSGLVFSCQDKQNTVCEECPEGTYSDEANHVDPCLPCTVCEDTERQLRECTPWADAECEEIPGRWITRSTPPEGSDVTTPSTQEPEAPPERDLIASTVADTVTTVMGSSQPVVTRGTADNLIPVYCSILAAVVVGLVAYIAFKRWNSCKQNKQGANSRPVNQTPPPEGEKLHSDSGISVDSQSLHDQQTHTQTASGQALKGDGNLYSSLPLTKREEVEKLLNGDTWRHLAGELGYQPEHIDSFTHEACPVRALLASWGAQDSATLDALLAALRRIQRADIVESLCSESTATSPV
Assay: endogenous co-IP from 3T3L1 adipocytes (anti-p75NTR IP, anti-Rab31 blot)
Description: Briefly, cell lysates were prepared in 1% Nonidet P-40 (NP-40; non-ionic detergent), 200 mM NaCl, 1 mM EDTA, and 20 mM Tris-HCl, pH 8.0. Immunoprecipitations (IPs) were performed with an anti-p75^NTR antibody and immunoblot with anti-Rab31 and anti-p75^NTR.
(C) Immunoprecipitation of p75^NTR with Rab31 and Rab5 in 3T3L1 adipocytes stimulated with insulin. Lysates were immunoprecipitated with anti-p75^NTR antibody, and western blots were developed with anti-Rab31 and anti-Rab5 antibodies.

- binding result: binds
B1: endogenous Rab31 in 3T3L1 adipocytes (enzyme, UniProt Q921E2 1-195, looked up)
chain: MMAIRELKVCLLGDTGVGKSSIVCRFVQDHFDHNISPTIGASFMTKTVPCGNELHKFLIWDTAGQERFHSLAPMYYRGSAAAVIVYDITKQDSFHTLKKWVKELKEHGPENIVMAIAGNKCDLSDIREVPLKDAKEYAESIGAIVVETSAKNAINIEELFQGISRQIPPLGPQENGNSGGIKLGNQSLQASRRCC

— US20140315799A1 (J DAVID GLADSTONE INSTITUTES, published 2014)
